Test results: patent publication US20180155451A1 (published 2018)

T1: FcγRIIa R (human, UniProt P12318 34-217)
T1 construct: extracellular domain; Soluble extracellular domain with C-terminal His tag, expressed in FreeStyle293 cells; also called FcgRIIa R; FcγRIIa type R; not shown: His tag attached to the C terminus
T1 sequence (looked up): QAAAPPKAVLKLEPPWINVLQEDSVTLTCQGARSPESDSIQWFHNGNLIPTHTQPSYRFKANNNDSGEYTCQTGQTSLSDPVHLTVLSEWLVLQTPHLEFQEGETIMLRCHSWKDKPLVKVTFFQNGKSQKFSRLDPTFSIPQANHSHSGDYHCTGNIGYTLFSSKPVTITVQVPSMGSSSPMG

B1: GpH7-B3 variant I332_15Y/GpL16-k0 (antibody, human IgG1, kappa)
heavy: not shown
light: DIVMTQSPLSLPVTPGEPASISCQASESLVHSNRNTYLHWYLQKPGQSPQLLIYKVSNRFSGVPDRFSGSGSGTDFTLKISRVEAEDVGVYYCSQNTHVPPTFGQGTKVEIERTVAAPSVFIFPPSDEQLKSGTASVVCLLNNFYPREAKVQWKVDNALQSGNSQESVTEQDSKDSTYSLSSTLTLSKADYEKHKVYACEVTHQGLSSPVTKSFNRGEC
notes: homodimerized; mutation in both H chains; also called Ho Ab
B2: GpH7-B3 variant L328_15Y/GpL16-k0 (antibody, human IgG1, kappa)
heavy: not shown
light: B1 light
notes: as for B1
B3: GpH7-B3 variant K334_15Y/GpL16-k0 (antibody, human IgG1, kappa)
heavy: not shown
light: B1 light
notes: as for B1
B4: GpH7-B3 variant K326_16H/GpL16-k0 (antibody, human IgG1, kappa)
heavy: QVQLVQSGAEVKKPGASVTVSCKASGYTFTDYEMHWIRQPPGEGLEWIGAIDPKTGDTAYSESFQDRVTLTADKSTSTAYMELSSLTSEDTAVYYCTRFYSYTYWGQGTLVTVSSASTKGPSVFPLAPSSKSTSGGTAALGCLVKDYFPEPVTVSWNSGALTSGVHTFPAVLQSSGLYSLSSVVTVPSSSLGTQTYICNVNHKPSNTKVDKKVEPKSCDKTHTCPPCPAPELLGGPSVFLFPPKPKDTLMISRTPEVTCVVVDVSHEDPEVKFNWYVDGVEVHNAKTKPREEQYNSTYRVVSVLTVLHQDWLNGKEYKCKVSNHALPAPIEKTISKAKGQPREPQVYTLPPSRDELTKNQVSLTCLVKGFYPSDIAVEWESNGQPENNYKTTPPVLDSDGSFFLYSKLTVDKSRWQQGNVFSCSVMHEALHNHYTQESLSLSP
light: B1 light
notes: as for B1
B5: GpH7-B3 variant S239_09D/GpL16-k0 (antibody, human IgG1, kappa)
heavy: not shown
light: B1 light
notes: homodimerized; mutation in both H chains; also called Ho Ab; GpH7-B3-06-09D/GpL16-k0
B6: GpH7-B3 variant S267_02A/GpL16-k0 (antibody, human IgG1, kappa)
heavy: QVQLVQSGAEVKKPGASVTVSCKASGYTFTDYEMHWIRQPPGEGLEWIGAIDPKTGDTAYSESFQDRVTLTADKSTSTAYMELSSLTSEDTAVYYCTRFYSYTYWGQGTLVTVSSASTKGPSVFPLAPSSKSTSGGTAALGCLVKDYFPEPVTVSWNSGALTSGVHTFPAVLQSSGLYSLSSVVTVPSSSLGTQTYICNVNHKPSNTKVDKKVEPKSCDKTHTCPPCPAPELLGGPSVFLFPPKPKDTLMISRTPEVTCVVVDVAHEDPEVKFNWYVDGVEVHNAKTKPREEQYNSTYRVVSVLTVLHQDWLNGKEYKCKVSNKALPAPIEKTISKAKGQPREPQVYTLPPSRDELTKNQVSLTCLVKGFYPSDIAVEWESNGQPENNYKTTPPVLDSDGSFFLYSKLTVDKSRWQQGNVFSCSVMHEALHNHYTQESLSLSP
light: B1 light
notes: as for B1
B7: GpH7-B3 variant S267_07I/GpL16-k0 (antibody, human IgG1, kappa)
heavy: not shown
light: B1 light
notes: as for B1
B8: GpH7-B3 variant L328_07I/GpL16-k0 (antibody, human IgG1, kappa)
heavy: not shown
light: B1 light
notes: as for B1
B9: GpH7-B3 variant P238_08L/GpL16-k0 (antibody, human IgG1, kappa)
heavy: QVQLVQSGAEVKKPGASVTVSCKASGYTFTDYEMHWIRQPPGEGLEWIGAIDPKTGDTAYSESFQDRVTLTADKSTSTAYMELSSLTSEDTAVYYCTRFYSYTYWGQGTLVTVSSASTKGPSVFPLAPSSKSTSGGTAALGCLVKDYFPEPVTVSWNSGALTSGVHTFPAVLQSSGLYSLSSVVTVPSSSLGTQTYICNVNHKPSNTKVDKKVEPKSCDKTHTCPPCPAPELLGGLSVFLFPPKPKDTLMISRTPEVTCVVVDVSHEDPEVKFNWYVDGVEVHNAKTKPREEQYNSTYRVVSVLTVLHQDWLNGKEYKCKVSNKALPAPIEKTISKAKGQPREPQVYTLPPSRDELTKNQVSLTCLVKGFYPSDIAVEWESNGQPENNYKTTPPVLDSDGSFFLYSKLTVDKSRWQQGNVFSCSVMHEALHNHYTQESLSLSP
light: B1 light
notes: as for B1
B10: GpH7-B3 variant K334_14T/GpL16-k0 (antibody, human IgG1, kappa)
heavy: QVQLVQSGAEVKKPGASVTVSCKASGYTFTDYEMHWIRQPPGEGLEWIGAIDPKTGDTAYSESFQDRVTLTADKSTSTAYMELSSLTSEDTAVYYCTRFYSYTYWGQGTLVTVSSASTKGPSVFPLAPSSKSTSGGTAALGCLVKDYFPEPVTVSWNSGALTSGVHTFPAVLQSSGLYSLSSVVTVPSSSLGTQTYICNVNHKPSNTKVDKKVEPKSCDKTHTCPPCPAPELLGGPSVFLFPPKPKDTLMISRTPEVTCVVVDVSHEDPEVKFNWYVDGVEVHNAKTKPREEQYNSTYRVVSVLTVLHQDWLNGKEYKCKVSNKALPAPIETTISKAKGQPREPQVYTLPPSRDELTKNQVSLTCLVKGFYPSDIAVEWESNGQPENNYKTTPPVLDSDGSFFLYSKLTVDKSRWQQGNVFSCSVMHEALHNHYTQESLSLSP
light: B1 light
notes: as for B1
B11: GpH7-B3 variant K326_09D/GpL16-k0 (antibody, human IgG1, kappa)
heavy: not shown
light: B1 light
notes: as for B1
B12: GpH7-B3 variant Y300_04F/GpL16-k0 (antibody, human IgG1, kappa)
heavy: not shown
light: B1 light
notes: as for B1
B13: GpH7-B3 variant S267_01G/GpL16-k0 (antibody, human IgG1, kappa)
heavy: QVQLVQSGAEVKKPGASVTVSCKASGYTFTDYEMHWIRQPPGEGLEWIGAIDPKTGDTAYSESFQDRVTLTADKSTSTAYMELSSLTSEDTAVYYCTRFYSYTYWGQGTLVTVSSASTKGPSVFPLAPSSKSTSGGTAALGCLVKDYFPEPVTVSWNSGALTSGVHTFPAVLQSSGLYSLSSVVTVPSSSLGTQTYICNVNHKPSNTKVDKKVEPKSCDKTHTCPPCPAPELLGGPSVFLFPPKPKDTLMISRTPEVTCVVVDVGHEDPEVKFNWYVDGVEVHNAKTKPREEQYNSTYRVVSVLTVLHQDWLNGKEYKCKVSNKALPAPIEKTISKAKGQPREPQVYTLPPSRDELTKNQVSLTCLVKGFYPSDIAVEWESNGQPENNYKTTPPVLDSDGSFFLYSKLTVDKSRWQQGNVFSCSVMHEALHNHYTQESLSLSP
light: B1 light
notes: as for B1
B14: GpH7-B3 variant K334_03V/GpL16-k0 (antibody, human IgG1, kappa)
heavy: not shown
light: B1 light
notes: as for B1
B15: GpH7-B3 variant T335_08L/GpL16-k0 (antibody, human IgG1, kappa)
heavy: not shown
light: B1 light
notes: as for B1
B16: GpH7-B3 variant K326_19Q/GpL16-k0 (antibody, human IgG1, kappa)
heavy: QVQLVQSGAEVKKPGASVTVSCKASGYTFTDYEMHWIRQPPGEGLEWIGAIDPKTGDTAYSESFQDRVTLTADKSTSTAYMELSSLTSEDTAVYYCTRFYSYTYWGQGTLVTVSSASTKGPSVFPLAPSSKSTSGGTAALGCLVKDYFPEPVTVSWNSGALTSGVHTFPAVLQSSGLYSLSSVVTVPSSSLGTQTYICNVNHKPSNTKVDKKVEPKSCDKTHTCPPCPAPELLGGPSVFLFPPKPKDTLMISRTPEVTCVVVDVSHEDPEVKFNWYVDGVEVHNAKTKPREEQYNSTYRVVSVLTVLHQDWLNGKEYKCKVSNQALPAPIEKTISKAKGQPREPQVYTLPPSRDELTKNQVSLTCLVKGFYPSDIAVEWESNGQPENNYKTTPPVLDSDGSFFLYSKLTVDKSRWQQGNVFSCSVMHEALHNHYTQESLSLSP
light: B1 light
notes: as for B1
B17: GpH7-B3 variant K334_16H/GpL16-k0 (antibody, human IgG1, kappa)
heavy: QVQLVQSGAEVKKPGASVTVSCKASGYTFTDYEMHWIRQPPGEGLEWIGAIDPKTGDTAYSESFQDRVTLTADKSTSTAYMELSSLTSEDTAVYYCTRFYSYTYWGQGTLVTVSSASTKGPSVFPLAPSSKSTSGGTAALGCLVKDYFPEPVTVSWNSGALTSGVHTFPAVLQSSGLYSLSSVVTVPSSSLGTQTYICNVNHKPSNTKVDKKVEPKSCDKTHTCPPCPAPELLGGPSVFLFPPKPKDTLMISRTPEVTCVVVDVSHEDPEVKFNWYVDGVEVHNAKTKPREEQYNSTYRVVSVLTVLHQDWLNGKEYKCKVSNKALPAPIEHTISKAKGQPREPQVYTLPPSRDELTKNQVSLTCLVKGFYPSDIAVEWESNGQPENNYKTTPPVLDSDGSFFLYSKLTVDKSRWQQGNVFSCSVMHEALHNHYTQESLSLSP
light: B1 light
notes: as for B1
B18: GpH7-B3 variant L328_03V/GpL16-k0 (antibody, human IgG1, kappa)
heavy: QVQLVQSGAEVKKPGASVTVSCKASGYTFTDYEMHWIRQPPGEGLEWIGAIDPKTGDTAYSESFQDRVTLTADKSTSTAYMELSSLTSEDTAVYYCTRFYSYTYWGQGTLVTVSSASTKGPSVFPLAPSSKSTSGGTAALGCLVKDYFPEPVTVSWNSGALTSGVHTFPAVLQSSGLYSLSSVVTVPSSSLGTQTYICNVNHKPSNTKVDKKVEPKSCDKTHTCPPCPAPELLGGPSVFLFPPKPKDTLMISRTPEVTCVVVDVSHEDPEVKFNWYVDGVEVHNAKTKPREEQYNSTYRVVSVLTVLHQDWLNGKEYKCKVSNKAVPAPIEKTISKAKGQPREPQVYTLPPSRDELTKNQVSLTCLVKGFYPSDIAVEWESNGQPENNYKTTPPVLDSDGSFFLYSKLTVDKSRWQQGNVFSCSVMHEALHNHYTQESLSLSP
light: B1 light
notes: as for B1
B19: GpH7-B3 variant T335_18N/GpL16-k0 (antibody, human IgG1, kappa)
heavy: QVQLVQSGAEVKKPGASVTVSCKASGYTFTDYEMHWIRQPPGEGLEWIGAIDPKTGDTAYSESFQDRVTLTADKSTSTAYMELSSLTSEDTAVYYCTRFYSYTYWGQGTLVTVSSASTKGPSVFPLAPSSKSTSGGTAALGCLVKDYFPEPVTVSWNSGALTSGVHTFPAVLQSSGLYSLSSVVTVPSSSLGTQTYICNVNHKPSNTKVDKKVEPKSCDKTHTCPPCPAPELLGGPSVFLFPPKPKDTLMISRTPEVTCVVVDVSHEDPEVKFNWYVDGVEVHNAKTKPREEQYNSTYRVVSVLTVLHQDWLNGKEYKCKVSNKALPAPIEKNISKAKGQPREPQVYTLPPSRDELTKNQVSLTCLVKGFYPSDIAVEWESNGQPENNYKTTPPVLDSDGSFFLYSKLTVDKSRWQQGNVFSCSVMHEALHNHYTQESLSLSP
light: B1 light
notes: as for B1
B20: GpH7-B3 variant T335_16H/GpL16-k0 (antibody, human IgG1, kappa)
heavy: not shown
light: B1 light
notes: as for B1
B21: GpH7-B3 variant T335_09D/GpL16-k0 (antibody, human IgG1, kappa)
heavy: not shown
light: B1 light
notes: as for B1
B22: GpH7-B3 variant K326_10E/GpL16-k0 (antibody, human IgG1, kappa)
heavy: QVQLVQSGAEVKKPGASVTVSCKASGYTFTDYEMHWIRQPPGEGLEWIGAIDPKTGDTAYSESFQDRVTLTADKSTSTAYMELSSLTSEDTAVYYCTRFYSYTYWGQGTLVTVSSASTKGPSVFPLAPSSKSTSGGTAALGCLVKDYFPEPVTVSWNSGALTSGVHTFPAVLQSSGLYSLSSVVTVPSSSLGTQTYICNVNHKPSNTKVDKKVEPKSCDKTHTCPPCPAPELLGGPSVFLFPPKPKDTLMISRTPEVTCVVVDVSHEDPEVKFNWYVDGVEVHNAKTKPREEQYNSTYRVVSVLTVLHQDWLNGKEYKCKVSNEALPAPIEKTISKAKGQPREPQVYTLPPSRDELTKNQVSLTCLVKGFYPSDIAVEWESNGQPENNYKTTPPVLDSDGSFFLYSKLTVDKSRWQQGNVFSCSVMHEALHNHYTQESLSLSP
light: B1 light
notes: as for B1
B23: GpH7-B3 variant T335_20W/GpL16-k0 (antibody, human IgG1, kappa)
heavy: not shown
light: B1 light
notes: as for B1
B24: GpH7-B3 variant L328_04F/GpL16-k0 (antibody, human IgG1, kappa)
heavy: not shown
light: B1 light
notes: as for B1
B25: GpH7-B3 variant K334_07I/GpL16-k0 (antibody, human IgG1, kappa)
heavy: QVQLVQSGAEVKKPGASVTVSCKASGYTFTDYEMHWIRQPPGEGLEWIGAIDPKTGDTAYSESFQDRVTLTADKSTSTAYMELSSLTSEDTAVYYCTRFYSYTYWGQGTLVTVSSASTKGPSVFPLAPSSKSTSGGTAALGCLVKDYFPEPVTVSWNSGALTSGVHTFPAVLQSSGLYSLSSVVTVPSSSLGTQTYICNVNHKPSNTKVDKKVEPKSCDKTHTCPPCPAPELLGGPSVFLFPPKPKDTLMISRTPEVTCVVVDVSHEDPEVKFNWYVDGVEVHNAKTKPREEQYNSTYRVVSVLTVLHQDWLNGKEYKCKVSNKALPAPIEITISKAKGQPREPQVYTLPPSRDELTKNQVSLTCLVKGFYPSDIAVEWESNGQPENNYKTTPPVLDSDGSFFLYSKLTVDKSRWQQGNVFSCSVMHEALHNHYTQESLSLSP
light: B1 light
notes: as for B1
B26: GpH7-B3 variant S239_01G/GpL16-k0 (antibody, human IgG1, kappa)
heavy: not shown
light: B1 light
notes: as for B1
B27: GpH7-B3 variant T335_19Q/GpL16-k0 (antibody, human IgG1, kappa)
heavy: not shown
light: B1 light
notes: as for B1

The binders below were run against T1, FcγRIIa R (assay: SPR (Biacore), antibody captured via antigen peptide, FcγRIIa R as analyte; homodimerized antibody).
Experimental: Analysis of interaction between objective antibody and the FcγR was carried out using Biacore T100 (GE Healthcare). HBS-EP+ (GE Healthcare) was used as the running buffer, and the measurement temperature was set to 25° C. Chips produced by immobilizing the antigen peptide by the amine coupling method to a Series S Sencor Chip CM5 (GE Healthcare), or alternatively, chips produced by allowing preliminarily biotinylated antigen peptides to interact with and immobilize onto a Series S Sensor Chip SA (certified) (GE Healthcare) were used. Antibodies of interest were captured onto an antigen peptide-immobilized chip, and allowed to interact to each FcγR diluted with running buffer. To regenerate and repeatedly use the chip, the antibodies captured on the chip were washed off by reacting 10 mM glycine-HCl, pH 1.5.
B1 was tested, and the Ho/Con_2aR was 111 % of control (GpH7-B3/GpL16-k0 = 100).
B2 was tested, and the Ho/Con_2aR was 157 % of control (GpH7-B3/GpL16-k0 = 100).
B3 was tested, and the Ho/Con_2aR was 112 % of control (GpH7-B3/GpL16-k0 = 100).
For B4, the Ho/Con_2aR was 123 % of control (GpH7-B3/GpL16-k0 = 100).
In the case of B5, the Ho/Con_2aR is reported as 142 % of control (GpH7-B3/GpL16-k0 = 100).
In the case of B6, the Ho/Con_2aR is reported as 160 % of control (GpH7-B3/GpL16-k0 = 100).
With B7 the Ho/Con_2aR was 113 % of control (GpH7-B3/GpL16-k0 = 100).
B8 was tested, and the Ho/Con_2aR was 140 % of control (GpH7-B3/GpL16-k0 = 100).
B9 was tested, and the Ho/Con_2aR was 148 % of control (GpH7-B3/GpL16-k0 = 100).
For B10, the Ho/Con_2aR was 117 % of control (GpH7-B3/GpL16-k0 = 100).
In the case of B11, the Ho/Con_2aR is reported as 158 % of control (GpH7-B3/GpL16-k0 = 100).
For B12, the Ho/Con_2aR was 109 % of control (GpH7-B3/GpL16-k0 = 100).
B13 was tested, and the Ho/Con_2aR was 116 % of control (GpH7-B3/GpL16-k0 = 100).
For B14, the Ho/Con_2aR was 123 % of control (GpH7-B3/GpL16-k0 = 100).
For B15, the Ho/Con_2aR was 108 % of control (GpH7-B3/GpL16-k0 = 100).
B16 was tested, and the Ho/Con_2aR was 137 % of control (GpH7-B3/GpL16-k0 = 100).
B17 was tested, and the Ho/Con_2aR was 111 % of control (GpH7-B3/GpL16-k0 = 100).
For B18, the Ho/Con_2aR was 116 % of control (GpH7-B3/GpL16-k0 = 100).
In the case of B19, the Ho/Con_2aR is reported as 100 % of control (GpH7-B3/GpL16-k0 = 100).
For B20, the Ho/Con_2aR was 102 % of control (GpH7-B3/GpL16-k0 = 100).
For B21, the Ho/Con_2aR was 113 % of control (GpH7-B3/GpL16-k0 = 100).
In the case of B22, the Ho/Con_2aR is reported as 156 % of control (GpH7-B3/GpL16-k0 = 100).
In the case of B23, the Ho/Con_2aR is reported as 101 % of control (GpH7-B3/GpL16-k0 = 100).
B24 was tested, and the Ho/Con_2aR was 145 % of control (GpH7-B3/GpL16-k0 = 100).
B25 was tested, and the Ho/Con_2aR was 121 % of control (GpH7-B3/GpL16-k0 = 100).
For B26, the Ho/Con_2aR was 132 % of control (GpH7-B3/GpL16-k0 = 100).
For B27, the Ho/Con_2aR was 102 % of control (GpH7-B3/GpL16-k0 = 100).
